Source: publication PMC4259887

Tests used:
[1] = target: E2s mutant Asn560Ala (Hepatitis E virus (HEV)) (UniProt Q81871); experiment: non-reducing SDS-PAGE; wild type E2s and its Ala mutants (expressed in E. coli) on non-reducing SDS-PAGE; dimer or monomer band
[2] = target: E2s mutant Gln531 to Ala (Hepatitis E virus (HEV)) (UniProt Q81871); experiment: as above
[3] = target: E2s mutant Gln568 to Ala (Hepatitis E virus (HEV)) (UniProt Q81871); experiment: as above
[4] = target: E2s mutant Ile529Ala (Hepatitis E virus (HEV)) (UniProt Q81871); experiment: as above
[5] = target: E2s mutant Pro604 to Ala (Hepatitis E virus (HEV)) (UniProt Q81871); experiment: as above
[6] = target: E2s mutant Ser527 to Ala (Hepatitis E virus (HEV)) (UniProt Q81871); experiment: as above
[7] = target: E2s mutant Thr489 to Ala (Hepatitis E virus (HEV)) (UniProt Q81871); experiment: as above
[8] = target: E2s, protruding homodimer domain of HEV capsid protein (wild type) (Hepatitis E virus (HEV)) (UniProt Q81871); experiment: as above
[9] = target: monoclonal antibody 8C11; experiment: CLIA (chemiluminescent immunoassay); details: rE2-coated microplate; 8C11-HRP only; parent: est. 1.0e7; read off a plot

E2s mutant Asn560Ala (from UniProt Q81871 455-603) (domain or fragment)
stoichiometry N [1]: 2

E2s mutant Gln531 to Ala (from UniProt Q81871 455-603) (domain or fragment)
stoichiometry N [2]: 2

E2s mutant Gln568 to Ala (from UniProt Q81871 455-603) (domain or fragment)
stoichiometry N [3]: 2

E2s mutant Ile529Ala (from UniProt Q81871 455-603) (domain or fragment)
stoichiometry N [4]: 2

E2s mutant Pro604 to Ala (from UniProt Q81871 455-603) (domain or fragment)
stoichiometry N [5]: 2

E2s mutant Ser527 to Ala (from UniProt Q81871 455-603) (domain or fragment)
stoichiometry N [6]: 2

E2s mutant Thr489 to Ala (from UniProt Q81871 455-603) (domain or fragment)
stoichiometry N [7]: 2

E2s, protruding homodimer domain of HEV capsid protein (wild type) (from UniProt Q81871 455-603) (domain or fragment)
stoichiometry N [8]: 2

E2s, protruding homodimer domain of HEV capsid protein (wild type) (from UniProt Q81871) I529A
response [9]: 9.7e+06 RLU/s

E2s, protruding homodimer domain of HEV capsid protein (wild type) (from UniProt Q81871) N560A
response [9]: 8.7e+06 RLU/s
